The target in the assay is human CD3 epsilon (CD3ε) (human) (UniProt P07766). Briefly: flow cytometry on human T cells.

This note sets out measurements from patent publication US20230057263A1.

In general, EC50 (read off the curve) refers to the concentration needed to bring the measured effect to its halfway point. Read a low EC50 (read off the curve) as an effect from little substance. In the case of OKT3 (antibody), the EC50 (read off the curve) worked out at 30 pM.
